Results from article PMC7489894 (Biochemical Journal, 2020).
Where no end group is shown, it is not given here.

T1: human Bcl-w (residues 9-152) (human, UniProt Q92843 9-152)
T1 sequence (looked up): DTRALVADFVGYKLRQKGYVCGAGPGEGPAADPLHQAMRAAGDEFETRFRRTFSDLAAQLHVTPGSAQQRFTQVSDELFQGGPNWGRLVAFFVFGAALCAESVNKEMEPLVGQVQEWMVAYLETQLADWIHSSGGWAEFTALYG

T2: human A1/Bfl-1 (residues 1-151) (human, UniProt Q16548 1-151)
T2 sequence (looked up): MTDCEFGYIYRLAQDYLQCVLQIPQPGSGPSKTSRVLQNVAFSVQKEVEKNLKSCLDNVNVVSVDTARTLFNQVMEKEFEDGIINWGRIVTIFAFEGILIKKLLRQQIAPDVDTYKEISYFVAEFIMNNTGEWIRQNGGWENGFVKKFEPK


Assays:
HyBcl-2-4 = test: ITC binding of BH3 motif peptides to HyBcl-2-4; design: species or system Hydra vulgaris; settings: read-out: KD (dissociation constant), HyBcl-2-4, MicroCal iTC200, 25°C, tag-free HyBcl-2-4 lacking 30 C-terminal residues, 25 mM Hepes pH 7.5, 150 mM NaCl, means of 3 experiments ± SD, NB: no binding detected
[1] = biological target: HyBcl-2-4 lacking 30 C-terminal residues (fusion tag-free) (Hydra vulgaris); test: ITC
[2] = biological target: human Bcl-2 (residues 10-203) (human, UniProt P10415 10-203); test: ITC
Sequence of human Bcl-2 (residues 10-203) (P10415 10-203): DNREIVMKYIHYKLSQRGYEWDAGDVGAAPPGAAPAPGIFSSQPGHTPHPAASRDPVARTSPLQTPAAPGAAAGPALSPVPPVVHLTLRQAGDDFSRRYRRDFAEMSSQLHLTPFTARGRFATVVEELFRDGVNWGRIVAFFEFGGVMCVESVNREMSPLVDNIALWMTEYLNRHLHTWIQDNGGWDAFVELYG

[3] = biological target: human Bcl-xL (residues 1-209 Δloop45-84) (human, UniProt Q07817-1 1-209, Δloop45-84); test: ITC
[4] = biological target: T1, human Bcl-w (residues 9-152); test: ITC
[5] = biological target: human Mcl-1 (residues 171-320) (human, UniProt Q07820 171-320); test: ITC
Sequence of human Mcl-1 (residues 171-320) (Q07820 171-320): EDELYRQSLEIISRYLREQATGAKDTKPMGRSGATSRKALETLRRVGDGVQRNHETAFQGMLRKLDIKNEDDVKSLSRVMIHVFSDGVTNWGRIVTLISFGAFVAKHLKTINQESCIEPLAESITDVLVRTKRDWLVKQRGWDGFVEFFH

[6] = biological target: T2, human A1/Bfl-1 (residues 1-151); test: ITC

| Molecule | Kd (HyBcl-2-4) [µM] | Kd [1] [µM] | binding result [2] | binding result [3] | binding result [4] | Kd [5] [µM] | binding result [6] |
| --- | --- | --- | --- | --- | --- | --- | --- |
| SMRRLRAIGACLRAIGDDIQSRSEKS [HyBH3-only] | 0.149 |  |  |  |  |  |  |
| SRNGTVNKEVAHCLKRIGDDLVNNHQLN [HyBax BH3 motif peptide] |  | 2.29 | binds | binds | binds | 0.041 | binds |
| SMRRLRAIGACLRAIGDDIQSRSEKS [HyBH3-only-2 BH3 motif peptide] |  | 0.149 | binds | binds | binds | 0.05 | binds |
| SNGETENLGRVLASFGDEINDKYRQV [HyBak1 BH3 motif peptide] |  |  | binds | binds | binds | 0.067 | binds |
